Test results as given in publication PMC5386385, “DRP-1 is required for BH3 mimetic-mediated mitochondrial fragmentation and apoptosis” (Cell Death & Disease, 2017).

Tests used:
[1] = biological target: WT MCL-1 fusion protein (N-terminal His6-tag fused to amino acids Glu173-Arg329, containing the BH3, BH1 and BH2 domains) (human) (UniProt Q07820); test: differential scanning fluorimetry (thermal shift assay); purified MCL-1 proteins (10 uM) with or without the indicated concentrations of ligand, Sypro-Orange, thermal ramping 0.3 °C per min between 25 and 94 °C, final DMSO 4% v/v; ΔTm against buffer without peptide
WT MCL-1 fusion protein (N-terminal His6-tag fused to amino acids Glu173-Arg329, containing the BH3, BH1 and BH2 domains) (human), sequence (Q07820 173-329): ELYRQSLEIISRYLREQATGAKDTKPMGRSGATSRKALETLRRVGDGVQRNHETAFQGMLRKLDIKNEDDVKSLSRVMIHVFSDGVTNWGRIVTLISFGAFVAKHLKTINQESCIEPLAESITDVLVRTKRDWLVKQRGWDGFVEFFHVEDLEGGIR

[2] = biological target: T1, WT MCL-1 fusion protein (N-terminal His6-tag fused to amino acids Glu173-Arg329, containing the BH3, BH1 and … (human, UniProt Q07820 173-329)); test: as above; conditions: both partners purified
T1 construct: human MCL-1, amino acids E173-R329 (BH3, BH1 and BH2 domains); the results once say 172-329; Cloned into pOPIN F; also called MCL-1 (E173-R329); MCL-1 protein (173-329); source: E. coli BL21 (DE3) pLysS, purified (Ni-NTA IMAC, Superdex 200 SEC)
T1 sequence (Q07820 173-329): as above

MCL-1 SAHB (stabilised alpha-helix of BCL-2 domains, designed to mimic the BH3 binding helix of MCL-1) (peptide)
thermal shift (ΔTm) at 10 uM [1]: 4 °C

B1: NOXA peptide (peptide)
peptide: AELPPEFAAQLRKIGDKVYC
notes: synthetic BH3 peptide of NOXA; source: synthetic peptide (New England Peptide or GenScript)
binding result [2]: binds

B2: PUMA peptide (peptide)
peptide: EQWAREIGAQLRRMADDLNA
notes: synthetic BH3 peptide of PUMA; source: synthetic peptide (New England Peptide or GenScript)
binding result [2]: binds

B3: MS-1 (MCL-1 specific synthetic peptide) (peptide)
peptide: RPEIWMTQGLRRLGDEINAYYAR
notes: MCL-1 specific synthetic BH3 peptide; source: synthetic peptide (New England Peptide or GenScript)
temperature shift (ΔTm) at equimolar peptide and MCL-1 [2]: ~10 °C
